Experimental data published in US20170334976A1 (ANNEXON, published 2017).

How the values were obtained:
[1] = biological target: T1, human complement factor C1q (human, UniProt P02745 23-245; P02746 28-253; P02747 29-245); test: OCTET biosensor, C1q immobilized; human C1q
T1 construct: The immunogen was C1q purified from human plasma (Complement Technology A-099); In the CH50 assays the C1q is the one present in human serum; Observed mass about 460 kDa; also called human C1q; hC1q
Procedure: (§1) C1q-antibody interactions were measured using an OCTET™ System according to standard protocols and manufacturer's instructions. Briefly, human and mouse C1q proteins were immobilized separately on a biosensor at three concentrations (3 nM, 1.0 nM, and 0.33 nM).

mouse C1q [2] = biological target: T2, mouse C1q (mouse, UniProt P14106 26-253); test: OCTET biosensor, C1q immobilized; mouse C1q
T2 construct: In the CH50 assay the C1q is the one present in C57Bl/6 mouse serum; also called mouse C1q protein
Procedure: as §1

[3] = biological target: T1, human complement factor C1q; test: OCTET biosensor, C1q immobilized, full length antibody in solution
Procedure: as §1

mouse C1q [4] = biological target: T2, mouse C1q; test: as above
Procedure: as §1

T2 sequence (chain, as listed by the source, chain 1 of 3): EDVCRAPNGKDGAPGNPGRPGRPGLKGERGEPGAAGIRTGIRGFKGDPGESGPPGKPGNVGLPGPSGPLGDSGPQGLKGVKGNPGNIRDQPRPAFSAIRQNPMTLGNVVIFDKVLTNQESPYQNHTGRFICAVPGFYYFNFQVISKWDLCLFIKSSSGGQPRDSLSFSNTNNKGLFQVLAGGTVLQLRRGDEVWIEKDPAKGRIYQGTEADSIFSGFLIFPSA
T2 sequence (P14106 26-253, chain 2 of 3): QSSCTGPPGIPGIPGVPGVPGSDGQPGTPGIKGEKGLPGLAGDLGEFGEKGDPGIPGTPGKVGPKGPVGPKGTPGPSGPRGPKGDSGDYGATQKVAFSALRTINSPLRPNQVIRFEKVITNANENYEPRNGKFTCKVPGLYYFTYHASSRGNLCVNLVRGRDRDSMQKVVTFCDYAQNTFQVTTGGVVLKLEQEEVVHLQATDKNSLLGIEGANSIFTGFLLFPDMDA
T2 sequence (chain, as listed by the source, chain 3 of 3): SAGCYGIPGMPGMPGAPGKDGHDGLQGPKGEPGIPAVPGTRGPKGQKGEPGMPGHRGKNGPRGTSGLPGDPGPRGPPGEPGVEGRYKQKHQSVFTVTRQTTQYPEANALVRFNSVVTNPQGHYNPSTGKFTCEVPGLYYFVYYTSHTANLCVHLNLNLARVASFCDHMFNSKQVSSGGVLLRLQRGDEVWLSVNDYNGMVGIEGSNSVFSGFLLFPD
T1 sequence (P02745 23-245 limits assumed, chain 1 of 3): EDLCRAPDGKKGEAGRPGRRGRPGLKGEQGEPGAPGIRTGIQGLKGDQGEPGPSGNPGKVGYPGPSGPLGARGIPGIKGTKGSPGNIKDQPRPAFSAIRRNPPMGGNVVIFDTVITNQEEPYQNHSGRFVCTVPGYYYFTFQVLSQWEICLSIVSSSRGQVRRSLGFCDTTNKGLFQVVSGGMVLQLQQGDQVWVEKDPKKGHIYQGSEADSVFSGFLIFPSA
T1 sequence (P02746 28-253 limits assumed, chain 2 of 3): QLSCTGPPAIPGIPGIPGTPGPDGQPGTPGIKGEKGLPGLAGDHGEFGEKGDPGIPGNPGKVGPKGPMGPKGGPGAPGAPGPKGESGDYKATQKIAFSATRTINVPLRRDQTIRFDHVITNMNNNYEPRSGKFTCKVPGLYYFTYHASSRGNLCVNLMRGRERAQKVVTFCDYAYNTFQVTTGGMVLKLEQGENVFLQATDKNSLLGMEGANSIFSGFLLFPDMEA
T1 sequence (P02747 29-245 limits assumed, chain 3 of 3): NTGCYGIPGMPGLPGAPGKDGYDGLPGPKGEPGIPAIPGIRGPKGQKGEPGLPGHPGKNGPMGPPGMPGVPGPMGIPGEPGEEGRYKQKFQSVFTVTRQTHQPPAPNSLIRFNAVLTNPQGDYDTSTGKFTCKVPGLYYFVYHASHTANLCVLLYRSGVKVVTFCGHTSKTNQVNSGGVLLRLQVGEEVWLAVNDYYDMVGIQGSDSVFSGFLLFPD

- Kd [1]: < 0.1 nM
- Kd (mouse C1q [2]): < 0.1 nM
- Kd [3]: 0.0128 nM
- Kd (mouse C1q [4]): 0.0323 nM
B1: murine anti-human C1q monoclonal antibody M1 (antibody, mouse IgG1, V domains shown)
VH: QVQLQQPGAELVKPGASVKLSCKSSGYHFTSYWMHWVKQRPGQGLEWIGVIHPNSGSINYNEKFESKATLTVDKSSSTAYMQLSSLTSEDSAVYYCAGERDSTEVLPMDYWGQGTSVTVSS
VL: DVQITQSPSYLAASPGETITINCRASKSINKYLAWYQEKPGKTNKLLIYSGSTLQSGIPSRFSGSGSGTDFTLTISSLEPEDFAMYYCQQHNEYPLTFGAGTKLELK
notes: Tested as full length hybridoma antibody; Isotype mouse IgG1, kappa; also called ANN-005; anti-C1q antibody M1
